Experimental data reported in PMC7159914.

Assays:
[1] = target: rotavirus (RV) A VP3, full-length recombinant (rotavirus A); test: cryo-EM structure
[2] = target: rotavirus (RV) A VP3, full-length recombinant (rotavirus A); test: crystal structure
[3] = target: rotavirus (RV) A VP3, full-length recombinant (rotavirus A); test: SEC + AUC

Measured: stoichiometry N

rotavirus (RV) A VP3, full-length recombinant (enzyme)
4: all assays above
